The values below come from patent publication US20130203162A1 (EVROGEN IP JOINT STOCK, published 2013).

Data set [1] deals with the molecule itself. Put plainly: gel filtration (self-association). On the procedure: (§1) Purified protein samples (˜1 mg/ml) were loaded onto a Sephadex-100 column (0.7×60 cm) and eluted with a solution of 50 mM phosphate buffer (pH 7.0) and 100 mM NaCl. EGFP, HcRed1 and DsRed2 (Clontech) were used as monomer, dimer and tetramer standards, respectively. In addition, a tendency to form tetramers has been indicated when recombinant purified EqFP578 was used for the gel-filtration at concentration of about 10 mg/ml.
Recombinant nrM181-5 was prepared, purified and characterized as described in the Example 2 for wild type EqFP578. nrM181-5 is a cyan fluorescent protein, characterized with excitation/emission fluorescence spectra peaked at 400/470 nm (see FIG. 7 for spectra). According to gel-filtration data, nrM181-5 is a monomeric protein at a concentration of 1 mg/ml. The protein is capable of photoconversion to the red fluorescent form in response to violet light irradiation.

Data set [2] concerns the molecule itself. The experiment in a line: gel filtration, self-association. The protocol: as §1
Recombinant M1-NA was prepared, purified and characterized as described in the Example 2 for wild type EqFP578. According to gel-filtration data, M1-NA is a dimeric protein at a concentration of 1 mg/ml. Fluorescent properties of M1-NA are the same as those of EqFP578 ml. M1-NA is a bright red fluorescent protein, characterized with excitation/emission fluorescence spectra peaked at 553/574 nm. M1-NA fluorescence quantum yield=0.67, molar extinction coefficient (at 553 nm)=92,000 M(−1)cm(−1). M1-NA doesn't form aggregates in vitro, according to gel-electrophoresis data. It also doesn't form any noticeable aggregates upon expression in eukaryotic cells, as it was shown for HeLa and 293T cell lines.
It excitation/emission spectra peaked at 574/602 nm (see FIG. 4 for spectra). M1-602 nm fluorescence quantum yield=0.35, molar extinction coefficient (at 574 nm)=74,400 M″)cm⁽⁻¹⁾. According to gel-filtration data, M1-602 nm is a dimeric protein at concentration of 1 mg/ml.

Data set [3] concerns the molecule itself. The experiment in a line: gel filtration on Sephadex-100, self-association (~1 mg/ml dimer; about 10 mg/ml tendency to tetramers). The protocol: as §1
On the technique in general: SEC sorts molecules by how far they enter the pores of the column.

Data set [4] concerns the molecule itself. Put plainly: gel filtration as in Example 2, self-association. The protocol:
as §1
Recombinant EqFP578 ml was prepared, purified and characterized as described in the Example 2 for wild type EqFP578. Fluorescence properties of this mutant were similar, but not identical to the wild type EqFP578. It has excitation-emission spectral peaks at 553 and 574 nm, respectively (FIG. 3). […] Like wild type EqFP578, EqFP578 m1 is a dimer.

Positions count from the first letter of the chain named.

B1: nrM181-5 cyan mutant of EqFP578 (other)
chain: MSELIKENMHMKLYMEGTVNNHHFKCTSEGEGKPYEGTQTMKIKVVEGGPLPFAFDILATSFMYGSKTFINHTQGIPDFFKQSFPEGFTWERVTTYEDGGVLTATQDTSLQDGCLIYNVKIRGVNFPSNGPVMQKKTLGWEAHTEMLYPADGGLEGRSDMALKLVGGGHLIANFKTTYRSKKPAKNLKMPGVYYVDHRLERIKEADKETYVEQHEMAVAKYCDLPSKLGHKLN
notes: Derived from M1-mono1
Regarding B1, the binding result in data set [1] was “no binding (tested: 1 mg/ml)”.

B2: Cyan-2-1 cyan mutant of EqFP578 (other)
chain: B1 chain with E36G, K42R, F53V, K67R, H143F, A172C, H197Y, M216V, K220R
notes: Derived from M1-mono1
On to B2, for which the binding result in data set [1] is given as “no binding (tested: 1 mg/ml)”.

B3: M1-NA non-aggregating mutant of EqFP578 (other)
chain: MGEYSELITENMHMKLYMEGTVNNHHFKCTSEGEGKPYEGTQTMKIKVVEGGPLPFAFDILATSFMYGSKAFINHTQGIPDFFKQSFPEGFTWERITTYEDGGVLTATQDTSFQNGCIIYNVKINGVNFPSNGPVMQKKTRGWEANTEMLYPADGGLRGHSQMALKLVGGGYLHCSFKTTYRSKKPAKNLRMPGFHFVDHRLERIKEADKETYVEQHEMAVAKYCDLPSKLGHS
As for B3, the binding result in data set [2] was “binds”.

B4: M1-637 mutant of EqFP578 (other)
chain: B3 chain with Y4D, F113L, I118L, R141L, N146S, G155S, F177L, R191K, H200R
Regarding B4, the binding result in data set [2] is “binds”.

B5: M1-602 mutant of EqFP578 (other)
chain: B3 chain with Y4D, F113L, I118L, R141L, N146S, G155S, S161G, F177L, R191K
notes: Engineered red-shifted mutant; also called M1-602 nm
Take B5: the binding result in data set [2] is “binds”.

B6: wild type Entacmaea quadricolor red fluorescent protein EqFP578 (other)
chain: MSELIKENMHMKLYMEGTVNNHHFKCTSEGERKPYEGTQTMKIKVVEGGPLPFAFDILATSFMYGSKTFINHTQGIPDLFKQSFPEGFTWERITTYEDGGVLTATQDTSLQNGCIIYNVKINGVNFPSNGSVMQKKTLGWEANTEMLYPADGGLRGHSQMALKLVGGGYLHCSFKTTYRSKKPAKNLKMPGFHFVDHRLERIKEADKETYVEQHEMAVAKYCDLPSKLGHR
notes: Recombinant protein from E. coli, purified on TALON resin; Dimer by gel filtration at ~1 mg/ml, with a tendency to form tetramers at about 10 mg/ml; not shown: N-terminal six-histidine tag from the pQE30 vector
With B6, the binding result in data set [3] is recorded as “binds”.

B7: EqFP578 m1 mutant (other)
chain: B6 chain with R32G, T68A, L79F, L110F, S131P, L138R
notes: Engineered mutant of EqFP578; also called EqFP578 ml
Consider B7, for which the binding result in data set [4] is “binds”.
